± gives the standard deviation of the averaged measurements.
The sequences below were run on ATP (assay: switch fluorescence ratio, 500 uM ATP over buffer (Cy3 cluster intensity, sum of 5 cycles each) (fold (ratio)); higher = stronger signal-on switching upon ATP binding; sequences stand for … in TCGTCGGCAGCGTCAGATGTGTATAAGAGACAGTTTTTTTTTTTTTTTTTTTTTTTTT…TC). Conditions: aptamer strand: ATP DNA aptamer (quencher-CACCTGGGGGAGTATTGCGGAGGAAGG + anchor), 100 nM annealed; ATP concentration: 500 uM.
Procedure, shortened: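 For every switch-domain sequence, the fluorescence ratio is the mean of per-cluster values, each being summed target-cycle Cy3 intensity over summed buffer-cycle Cy3 intensity. Clusters outside 100-1000 RFU were excluded. On a modified Illumina MiSeq flow-cell, the Cy3-labelled switching-strand clusters were annealed to 100 nM quencher-labelled ATP aptamer, imaged in selection buffer and then after 15 min with 500 uM ATP at 22 °C. Five such cycles were run, with NaOH stripping and re-annealing between them.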
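Also: ATP exposure 15 min at 22 °C before imaging.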

| Sequence | switch fluorescence ratio |
| --- | --- |
| GCTATGAAAG | 0.995 ± 0.013 |
| GCTAGCGTTC | 1 ± 0.013 |
| TGGGTGCCGA | 0.989 ± 0.011 |
| TCCTTTATAC | 3.09 ± 0.71 |
| CAAATAAGTC | 0.998 ± 0.013 |
| CGCGGCTGGG | 1 ± 0.026 |
| CCCCAAAAGT | 1.12 ± 0.14 |
| AGGGTAAATA | 1.0193 ± 0.00016 |
| AGTGCGTCTT | 1.01 ± 0.021 |
| CGAAAGGTTG | 0.939 ± 0.017 |
| TTCGGTCGGG | 0.987 ± 0.028 |
| TTTGCTGGGA | 0.9812 ± 0.0098 |
| GCTGTGGTAC | 1.188 ± 0.0086 |
| TTATTCTCAC | 1.031 ± 0.0064 |
| CGGGATTGAG | 0.979 ± 0.0058 |
| TGGACGTGTC | 1 ± 0.019 |
| AGGGCAGGGA | 0.993 ± 0.017 |
| GGAAAGGTCG | 1.04 ± 0.039 |
| ACGAGTCTGG | 1.08 ± 0.039 |
| GGGAGTGGCA | 1.08 ± 0.15 |
| ACCTTCTTTT | 1.11 ± 0.11 |
| TGGACCAGTT | 1.008 ± 0.0033 |
| TGATGTCCGT | 0.997 ± 0.02 |

| Sequence | switch fluorescence ratio |
| --- | --- |
| GAGATAAAAG | 1.01 ± 0.03 |
| TAGGTGTTGC | 1 ± 0.023 |
| ATCCGCTTTA | 3.28 ± 0.25 |
| CGGATGGGAA | 0.995 ± 0.024 |
| CCTGATGCGG | 1.02 ± 0.059 |
| AAGGGGGGTG | 1.03 ± 0.048 |
| TGGTCGGGGC | 0.974 ± 0.025 |
| TTGTACAA | 0.993 ± 0.017 |
| CTAGGTTTGG | 1.02 ± 0.033 |
| GCAACGTTCC | 1.96 ± 1.4 |
| TAAGTAGTTT | 1.02 ± 0.013 |
| AGCTAGGGGG | 0.989 ± 0.022 |
| GTGATGTTAG | 1.01 ± 0.011 |
| GTTTTGTTCC | 1.019 ± 0.0041 |
| TATGTGTGAC | 1.03 ± 0.021 |
| ATCTTCGGGC | 0.9869 ± 0.0065 |
| GTTAGATTGG | 0.982 ± 0.013 |
| AGCGCAAAAT | 1.02 ± 0.069 |
| GGGAGTTGGG | 1.02 ± 0.044 |
| TTAAAAGAT | 0.998 ± 0.035 |
| TTTTTCAAGA | 0.9897 ± 0.0088 |
| AAACATTATT | 1 ± 0.063 |
| TGGTTTTGT | 1.03 ± 0.066 |

| Sequence | switch fluorescence ratio |
| --- | --- |
| TGGGGTGGTT | 1.03 ± 0.015 |
| TGAGGGATGT | 1.04 ± 0.059 |
| TGGGGAAGAG | 1.02 ± 0.027 |
| AAGTAGGGGC | 1.02 ± 0.015 |
| CGTAGGGGCT | 1 ± 0.011 |
| GGGGGCATTG | 0.9933 ± 0.0084 |
| ATCCGGTCGG | 1.03 ± 0.066 |
| TATTTTAATC | 1.04 ± 0.059 |
| TTAAAGTAGC | 1.02 ± 0.017 |
| TTAATCTGCC | 1.15 ± 0.025 |
| GTGCGATGTA | 1.02 ± 0.031 |
| ATGTAGCGGT | 1.12 ± 0.013 |
| AGACTGAGTT | 0.984 ± 0.016 |
| CGAGGATGT | 1.01 ± 0.011 |
| GGATTAGTGC | 1.06 ± 0.039 |
| TTTTGATCGC | 1.36 ± 0.5 |
| ATAGCATGTT | 1 ± 0.038 |
| TAAAGTATAA | 0.972 ± 0.026 |
| AACTATGCCT | 1.03 ± 0.037 |
| GATGATGGGA | 0.97941 ± 0.00096 |
| ATTATGAACC | 1.04 ± 0.016 |
| GAATCAGTGG | 0.993 ± 0.05 |
| GGCTTGGGAG | 0.982 ± 0.019 |

| Sequence | switch fluorescence ratio |
| --- | --- |
| TTGGCCCGGC | 1.52 ± 0.72 |
| AAACTACTCT | 1.03 ± 0.02 |
| GGAATGCTTC | 1.06 ± 0.041 |
| TATGATGGGT | 1.015 ± 0.01 |
| CTTAGTCTTT | 1.018 ± 0.0027 |
| GGGAATGGTG | 1.035 ± 0.0095 |
| TCTCCGGGGA | 1.2077 ± 0.0006 |
| AATGAAGAAG | 1.17 ± 0.22 |
| TCAGAGCATC | 1.96 ± 1.1 |
| ACGACTTGGT | 1.09 ± 0.11 |
| TCGGGCAGCG | 0.989 ± 0.058 |
| ACCTGATATA | 1.03 ± 0.021 |
| TAAGGGTCCC | 0.965 ± 0.016 |
| TATGGGGCTT | 0.992 ± 0.017 |
| ACCCGGGGCA | 1.05 ± 0.054 |
| TGTAGGGTGC | 1.07 ± 0.044 |
| TGAGGCGGGT | 1.05 ± 0.016 |
| CGTTGCTTTT | 1.01 ± 0.026 |
| TTATTATTT | 0.994 ± 0.11 |
| GCCTTTCAGA | 1.005 ± 0.0053 |
| ATTGTTACTG | 1.06 ± 0.021 |
| CACGATTTTT | 0.988 ± 0.022 |
| CATTGCTCTG | 1.02 ± 0.026 |

| Sequence | switch fluorescence ratio |
| --- | --- |
| GGGGTTCAGC | 0.978 ± 0.038 |
| ACGTGTGGGA | 1.04 ± 0.02 |
| CGCGGGGTAC | 1.66 ± 0.26 |
| GTAAGGAGTA | 0.96199 ± 0.0002 |
| GAACTTGCCA | 1.06 ± 0.073 |
| AGGAGGTTGG | 0.998 ± 0.017 |
| TGGTTTTGGT | 0.987 ± 0.025 |
| ATTGCGAGGC | 1.04 ± 0.029 |
| CTTACGCAGC | 1.59 ± 0.016 |
| ATTGTGCTGG | 0.983 ± 0.018 |
| TCGGTCCGAT | 0.9997 ± 0.005 |
| ATGCGATGTA | 1.04 ± 0.046 |
| CAGGTCATTA | 0.9784 ± 0.0076 |
| CCTTTGCAGG | 2.45 ± 0.27 |
| GGGGGCAGAA | 0.983 ± 0.018 |
| ACGTCGGGGG | 1 ± 0.021 |
| AGGGTGTGCT | 1.015 ± 0.0042 |
| TTTGGGCAGT | 1 ± 0.017 |
| CCGCTAAGGT | 1.39 ± 0.092 |
| AGTGTGTTAT | 0.974 ± 0.011 |
| GGGGGACCGA | 1.02 ± 0.023 |
| AATTGGGCGC | 1.01 ± 0.011 |
| TGCCACTCCT | 1.0495 ± 4.1e-05 |

| Sequence | switch fluorescence ratio |
| --- | --- |
| AATAATATTT | 1.01 ± 0.021 |
| AGTAAAGGAA | 0.999 ± 0.014 |
| ACATTAACTA | 1.09 ± 0.019 |
| GCGGGGTATC | 1.09 ± 0.18 |
| TTGGCTGGTG | 1.03 ± 0.04 |
| GCTCTAATGC | 1.17 ± 0.096 |
| TCATTTTGTT | 1 ± 0.028 |
| ACTTTAGGGT | 1.15 ± 0.12 |
| TGTTGGCCAG | 0.9797 ± 0.0075 |
| AGGAGCAGGG | 1 ± 0.05 |
| GCCGTTGCAT | 1.022 ± 0.0019 |
| TGCATTAGGA | 1.02 ± 0.024 |
| CAAGCGTTGT | 1.03 ± 0.036 |
| ATGCGAAGG | 0.98 ± 0.038 |
| TGGAGTCGTG | 0.9729 ± 0.0091 |
| ATATGAAGGA | 0.993 ± 0.013 |
| TAGTAGCCTT | 1.03 ± 0.022 |
| AATGTCTGGG | 0.9982 ± 0.0018 |
| AGAGCGGTTC | 1.06 ± 0.11 |
| TTGGGGCTGA | 0.993 ± 0.037 |
| AGCTTGGGTT | 0.98 ± 0.018 |
| GAGGTGACTG | 1.01 ± 0.015 |
| AACCGCGTTG | 1.06 ± 0.012 |

| Sequence | switch fluorescence ratio |
| --- | --- |
| TACGGGGAT | 1.84 ± 1.2 |
| CCCGGGGCTG | 1.024 ± 0.0073 |
| TAAAAACCAT | 1.01 ± 0.046 |
| TGACGAAGGA | 1.23 ± 0.3 |
| AAGTATGGGG | 0.978 ± 0.021 |
| ATACAAAA | 1.02 ± 0.048 |
| AATGCCGGCC | 1.08 ± 0.028 |
| TGAGAGAAGT | 0.968 ± 0.071 |
| TGGTGTATGG | 1.01 ± 0.035 |
| AAGCCGCTAG | 1.11 ± 0.026 |
| TTGAATGAAT | 1.015 ± 0.0031 |
| CCTTAGGTTT | 1.002 ± 0.0011 |
| TTATGCGATT | 1 ± 0.022 |
| TGGAATTAGT | 0.986 ± 0.038 |
| CCAATGTGCG | 0.9925 ± 0.0092 |
| AAGGGGGAAC | 1.002 ± 0.0052 |
| TACTGGATGA | 0.991 ± 0.029 |
| CTTTGGGTTT | 0.981 ± 0.058 |
| GGTTATCGGC | 1.01 ± 0.017 |
